The results in this text go back to article PMC6612188.

Series [1] has as its target T1, VraR (unphosphorylated) (Staphylococcus aureus) (UniProt Q7A2Q1).
T1 sequence: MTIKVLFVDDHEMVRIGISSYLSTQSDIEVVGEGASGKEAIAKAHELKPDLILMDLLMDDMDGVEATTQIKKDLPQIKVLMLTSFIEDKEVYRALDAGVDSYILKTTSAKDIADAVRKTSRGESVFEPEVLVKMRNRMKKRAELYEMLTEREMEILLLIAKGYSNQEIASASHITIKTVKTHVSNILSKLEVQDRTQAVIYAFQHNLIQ
As to the kind of experiment: DNase I footprinting. The settings on record: 10 mM Tris pH 7.5, 50 mM KCl, 1 mM DTT, 10 mM MgCl2, 50% glycerol, 20 ng/ul herring sperm DNA; 2 ng amplicon; protein 0-50 uM; temperature not stated.

The target in series [2] is T2, VraRM13A (unphosphorylated) M13A (Staphylococcus aureus) (UniProt Q7A2Q1).
T2 sequence: T1 sequence with M13A
As to the kind of experiment: DNase I footprinting. The settings on record: 10 mM Tris pH 7.5, 50 mM KCl, 1 mM DTT, 10 mM MgCl2, 50% glycerol, 20 ng/ul herring sperm DNA; 2 ng amplicon; protein 0-50 uM; temperature not stated.

Numbering of substitutions follows the chain as printed.

Take “TGAAATGACGCATTGATTGTGTTCTTAATTATTATAAAACAGTTCCGAAACCAATATGAATAGGCTCCGGAACTAAATGATGTTCATACTTTAGTCTTAGTATATGTTGAACTATTCTTCTTCAATCTTTGTCGTTAAAATCGGACCAAGCTTCGT (double strand) [PvraSR (-121 to +26)]”: the binding result was “binds” in series [1] and “binds more weakly” in series [2].
